Target: recombinant anthrax protective antigen (PA) (Bacillus anthracis) (UniProt P13423)
Experiment: SPR (Biacore)

Sequence of recombinant anthrax protective antigen (PA) (Bacillus anthracis) (P13423 30-764 limits assumed): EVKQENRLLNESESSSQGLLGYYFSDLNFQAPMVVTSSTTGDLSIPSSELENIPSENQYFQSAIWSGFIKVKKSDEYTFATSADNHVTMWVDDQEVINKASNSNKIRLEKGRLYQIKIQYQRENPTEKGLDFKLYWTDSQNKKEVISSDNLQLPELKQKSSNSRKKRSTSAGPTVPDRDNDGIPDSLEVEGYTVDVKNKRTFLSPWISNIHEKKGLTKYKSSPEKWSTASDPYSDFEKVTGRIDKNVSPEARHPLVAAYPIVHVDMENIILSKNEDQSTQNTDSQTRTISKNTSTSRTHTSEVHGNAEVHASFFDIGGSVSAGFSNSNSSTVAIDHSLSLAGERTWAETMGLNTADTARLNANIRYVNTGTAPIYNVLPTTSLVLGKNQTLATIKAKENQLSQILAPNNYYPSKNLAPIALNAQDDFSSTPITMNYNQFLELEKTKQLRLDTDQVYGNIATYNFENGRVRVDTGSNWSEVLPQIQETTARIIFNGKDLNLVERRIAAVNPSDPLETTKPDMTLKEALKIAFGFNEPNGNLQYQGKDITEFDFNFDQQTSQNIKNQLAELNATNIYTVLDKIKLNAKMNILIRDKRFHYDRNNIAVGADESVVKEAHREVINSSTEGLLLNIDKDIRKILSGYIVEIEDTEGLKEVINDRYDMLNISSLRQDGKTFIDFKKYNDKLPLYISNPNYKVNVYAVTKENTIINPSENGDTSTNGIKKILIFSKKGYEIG

## mouse anti-PA monoclonal antibody 14B7
  Kd: 4 nM

Reference: patent US20100074892A1
